Literature values, collected in PMC7355470.
Read-outs that look alike come from different tables or passages of the source. One block for each substance: values may come before it.

Assays:
PSGL-1 (Homo sapiens) [1] = target: PSGL-1 (Homo sapiens) (UniProt Q14242)
ESL-1 (Mus musculus) = ESL-1 (Mus musculus) (UniProt Q61543); test: SPR
PSGL-1 (Homo sapiens) [2] = target: PSGL-1 (Homo sapiens) (UniProt Q14242); remark: listed apart in the source
GlyCAM-1 = GlyCAM-1 (UniProt Q02596)
[3] = target: PSGL-1 glycosulfopeptide N-terminal binding region peptide (Homo sapiens) (UniProt Q14242)
[4] = target: PSGL-1 glycopeptide (non-sulfated) N-terminal binding region peptide (Homo sapiens) (UniProt Q14242)
[5] = target: PSGL-1 glycosulfopeptide N-terminal binding region peptide (Homo sapiens) (UniProt Q14242); remark: listed apart in the source
[6] = target: PSGL-1 glycosulfopeptide N-terminal binding region peptide (Homo sapiens) (UniProt Q14242); remark: listed apart in the source
[7] = target: L-selectin (Homo sapiens) (UniProt P14151)
[8] = target: P-selectin (Homo sapiens) (UniProt P16109)
[9] = target: E-selectin (Homo sapiens) (UniProt P16581)
[10] = target: P-selectin (Homo sapiens) (UniProt P16109); remark: listed apart in the source
[11] = target: P-selectin (Homo sapiens) (UniProt P16109); remark: listed apart in the source
[12] = target: P-selectin (Homo sapiens) (UniProt P16109); remark: listed apart in the source
[13] = target: P-selectin (Homo sapiens) (UniProt P16109); remark: listed apart in the source

PSGL-1, sequence (Q14242 42-320): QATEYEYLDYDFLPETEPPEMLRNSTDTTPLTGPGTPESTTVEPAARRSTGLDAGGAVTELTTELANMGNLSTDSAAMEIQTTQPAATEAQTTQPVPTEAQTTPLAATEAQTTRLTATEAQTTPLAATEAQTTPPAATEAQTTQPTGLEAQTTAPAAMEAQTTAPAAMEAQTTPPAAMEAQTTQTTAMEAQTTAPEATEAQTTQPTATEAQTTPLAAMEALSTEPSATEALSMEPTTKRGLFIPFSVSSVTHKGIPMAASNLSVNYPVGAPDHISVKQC
UniProt Q61543, sequence (Q61543 28-1141): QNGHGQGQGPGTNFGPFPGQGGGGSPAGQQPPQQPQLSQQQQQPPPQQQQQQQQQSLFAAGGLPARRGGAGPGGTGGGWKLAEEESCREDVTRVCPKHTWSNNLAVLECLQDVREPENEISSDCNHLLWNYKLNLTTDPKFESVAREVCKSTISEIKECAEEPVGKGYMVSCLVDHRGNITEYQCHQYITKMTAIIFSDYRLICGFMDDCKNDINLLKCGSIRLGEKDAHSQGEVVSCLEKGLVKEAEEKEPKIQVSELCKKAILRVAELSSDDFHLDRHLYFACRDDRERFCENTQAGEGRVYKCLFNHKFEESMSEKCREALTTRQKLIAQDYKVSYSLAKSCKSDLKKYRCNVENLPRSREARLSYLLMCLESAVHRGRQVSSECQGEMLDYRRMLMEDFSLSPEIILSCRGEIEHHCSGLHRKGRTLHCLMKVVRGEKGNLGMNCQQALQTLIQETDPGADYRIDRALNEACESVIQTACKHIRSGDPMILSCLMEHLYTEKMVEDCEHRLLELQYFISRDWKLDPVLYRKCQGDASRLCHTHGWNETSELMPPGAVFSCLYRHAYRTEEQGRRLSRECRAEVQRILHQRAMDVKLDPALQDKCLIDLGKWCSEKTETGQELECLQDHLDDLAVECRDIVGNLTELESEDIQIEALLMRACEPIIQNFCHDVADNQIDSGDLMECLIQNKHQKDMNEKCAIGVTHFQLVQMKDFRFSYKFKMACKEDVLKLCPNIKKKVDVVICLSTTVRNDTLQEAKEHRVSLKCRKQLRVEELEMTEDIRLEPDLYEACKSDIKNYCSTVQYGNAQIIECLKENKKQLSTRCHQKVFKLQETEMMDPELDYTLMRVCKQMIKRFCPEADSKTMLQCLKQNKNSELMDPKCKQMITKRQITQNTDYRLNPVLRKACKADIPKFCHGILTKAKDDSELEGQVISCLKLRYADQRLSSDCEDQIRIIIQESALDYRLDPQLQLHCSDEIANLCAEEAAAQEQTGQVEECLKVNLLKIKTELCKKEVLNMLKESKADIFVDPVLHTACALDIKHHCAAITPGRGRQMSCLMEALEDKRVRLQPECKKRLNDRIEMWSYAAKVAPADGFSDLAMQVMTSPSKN
PSGL-1 glycopeptide (non-sulfated), sequence (Q14242 42-320): as the sequence (Q14242 42-320) above
UniProt Q02596, sequence (Q02596 20-151): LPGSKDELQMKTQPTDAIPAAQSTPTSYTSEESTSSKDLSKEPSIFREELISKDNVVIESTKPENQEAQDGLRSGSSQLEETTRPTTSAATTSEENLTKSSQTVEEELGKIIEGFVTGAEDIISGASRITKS

Substance: E-selectin (from UniProt P16581)
Kd (PSGL-1 (Homo sapiens) [1]): 15 µM
Kd (ESL-1 (Mus musculus)): 62 µM

Substance: L-selectin (from UniProt P14151)
Kd (PSGL-1 (Homo sapiens) [2]): 5 µM

Substance: L-selectin (from UniProt P18337)
Kd (GlyCAM-1): 108 µM

The remaining lines, values ahead:

Kd (ESL-1 (Mus musculus)): 62 µM
Substance: E-selectin (from UniProt Q00690)

Kd [3]: 0.65 µM
Kd [4]: 25 µM
Kd [5]: 6 µM
Kd [6]: 10 µM
Substance: P-selectin (from UniProt P16109)

Kd [7]: 5 µM
Kd [8]: 0.32 µM
Kd [9]: 15 µM
Substance: PSGL-1 (from UniProt Q14242)

Kd [10]: 10 µM
Kd [11]: 0.65 µM
Kd [12]: 6 µM
Substance: PSGL-1 glucosulfopeptide (from UniProt Q14242)

Kd [13]: 25 µM
Substance: PSGL-1 glycopeptide (non-sulfated) (from UniProt Q14242)
